Values of other authors in PMC7555924.

What was measured:
[1] = target: Cys1 (UniProt position 1, -----CGVPAI); conditions: fully reduced (all disulfides cleaved), molten globule-like conformation
[2] = target: Cys47 (UniProt position 48, SLKASCLYGQL); conditions: not stated (the Cys47 thiolate is described as ion-paired with Lys54)
[3] = target: Cys94 (UniProt position 94, GSRNLCNIPCS); conditions: fully reduced (all disulfides cleaved), molten globule-like conformation
[4] = target: Cys95 (UniProt position 121, SKYPNCAYKTT); conditions: fully reduced (all disulfides cleaved), molten globule-like conformation
[5] = target: Cys75 (UniProt position 99, FGDELCKVASL); conditions: fully reduced (all disulfides cleaved), molten globule-like conformation

Substance: Chymotrypsinogen A (reduced, rChTg) (Bos taurus)
- pKa [1]: 8.1

Substance: Glutathione S-transferase P1-1 (GSTP1-1) (Homo sapiens)
- pKa [2]: 3.5

Substance: Lysozyme C (reduced, rLyz) (Gallus gallus)
- pKa [3]: 6.6

Substance: Ribonuclease A (reduced, rRNase) (Bos taurus)
- pKa [4]: 7.9

Substance: Serum albumin (reduced, rBSA) (Bos taurus)
- pKa [5]: 6.6
